We go through six substances from patent publication US12338483.

Series [1] has as its system MMP substrate (Example 3).
Series [2] has as its system Thrb substrate (individual protease substrate labeled with a fluorescent quencher and dye, nanoparticle-conjugated).
The test system of series [3] is T1, GzmB/Thrb AND-gate protease activity sensor.
T1 sequence: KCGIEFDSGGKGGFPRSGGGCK

Series [4] concerns GzmB substrate (individual protease substrate labeled with a fluorescent quencher and dye, nanoparticle-conjugated).
For series [5], the system named is GzmB/MMP AND-gate protease activity sensor.
In series [6] the test system is MMP substrate of the biocomparator peptide cage (Example 4).

Sequence of MMP1 (P03956 100-469): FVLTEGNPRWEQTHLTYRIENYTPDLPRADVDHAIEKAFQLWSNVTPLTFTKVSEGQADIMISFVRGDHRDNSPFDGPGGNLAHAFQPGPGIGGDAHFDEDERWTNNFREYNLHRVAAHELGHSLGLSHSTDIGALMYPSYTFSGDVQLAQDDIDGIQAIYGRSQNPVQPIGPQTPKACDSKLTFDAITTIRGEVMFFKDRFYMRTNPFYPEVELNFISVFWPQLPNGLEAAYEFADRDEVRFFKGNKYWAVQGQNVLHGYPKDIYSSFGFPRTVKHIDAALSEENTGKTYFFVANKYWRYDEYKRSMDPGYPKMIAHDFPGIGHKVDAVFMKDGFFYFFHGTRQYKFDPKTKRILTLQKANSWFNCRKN

Take MMP1: the “change in fluorescence in a cleavage assay (kinetic trace)” value (shortened to “change in fluorescence … (kinetic trace)”) in series [1] was “The substrate was cleaved with high activity by MMP1, MMP8, and MMP13”.
As to thrombin (Thrb), the entries for the “change in fluorescence in a cleavage assay (quenched substrate)” value in series [2] and in series [4] were “the Thrb substrate was cleaved only by Thrb” and “the GzmB substrate was cleaved effectively by GzmB alone”, respectively. Further, the “change in fluorescence in a cleavage assay (AND-gate sensor)” value in series [3] is reported as “The reporter molecule emits a high fluorescent signal when both proteases are present together but not when either protease is present alone”.
As to granzyme B (GzmB), the fluorescent signal in a cleavage assay (AND-gate sensor with each MMP, with and without GzmB) in series [5] was more than 2 fold. Also, the “change in fluorescence in a cleavage assay (quenched substrate)” value is recorded as “the Thrb substrate was cleaved only by Thrb” in series [2] and “the GzmB substrate was cleaved effectively by GzmB alone” in series [4]. Moreover, the “change in fluorescence in a cleavage assay (AND-gate sensor)” value in series [3] is reported as “The reporter molecule emits a high fluorescent signal when both proteases are present together but not when either protease is present alone”.
As for MMP13, the “change in fluorescence … (kinetic trace)” value in series [1] was “The substrate was cleaved with high activity by MMP1, MMP8, and MMP13”.
Take MMP8: in series [5], the “fluorescent signal in a cleavage assay (AND-gate sensor with GzmB and a second protease)” value is “The sensor produced low signals with the viral proteases compared to MMP8”. Further, the “change in fluorescence … (kinetic trace)” value in series [1] is “The substrate was cleaved with high activity by MMP1, MMP8, and MMP13”.
As for MMP9, in series [6], the fluorescent cleavage assay entry was “Results also confirmed MMP9 can cleave the MMP substrate by cleavage assay”.
